Laboratory results as given in patent US20240252614A1 (Pfizer, published 2024).

Columns and labels:
[1] = molecular target: T1, PIV1 F literature prefusion comparison (PIV1); test: BLI, no stress
T1 construct: F113G, F114S, A466I, S473I (Stewart-Jones et al. 2018)
Experimental: (§1) Conformation integrity of PIV1 F protein mutants were evaluated by a thermal stress experiment. Crude cell culture supernatants were normalized based on the results of the titer quantitation and then incubated for 1 hour at room temperature and two higher temperatures. For the initial testing of PIV1 mutants, the two temperatures were 50° C. and 53° C. […] Anti-Human IgG Fc Capture (AHC) biosensors were first equilibrated in PB for before being dipped into more PB to establish the initial baseline. […] The mAb-bound biosensors were then dipped into the thermal stresses cell culture supernatants for 5 minutes.

PIV1069 [2] = molecular target: T2, PIV1069 (PIV1); test: BLI, no stress
T2 construct: F113G, F114S, A466L, S473L, G134A
Experimental: as §1

PIV1070 [3] = molecular target: T3, PIV1070 (PIV1); test: BLI, no stress
T3 construct: F113G, F114S, A466I, S473I, G134A
Experimental: as §1

[4] = molecular target: T1, PIV1 F literature prefusion comparison; test: BLI, 56C stress;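 further: binding of thermally stressed PIV1 F mutant supernatant to mAb on AHC biosensors for 5 min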
Experimental: (§2) The OCTET HTX (Sartorius, Gottingen, Germany) instrument was used to evaluate the expression and conformational integrity for each mutant. All measurements were conducted at 30° C. temperature in 96-well black plates (Corning, Corning, NY) with a final volume of 240 μL per well at a constant agitation rate of 1000 RPM.
as §1

PIV1069 [5] = molecular target: T2, PIV1069; test: BLI, 56C stress;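 further: binding of thermally stressed PIV1 F mutant supernatant to mAb on AHC biosensors for 5 min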
Experimental: as §2, §1

PIV1070 [6] = molecular target: T3, PIV1070; test: BLI, 56C stress;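 further: binding of thermally stressed PIV1 F mutant supernatant to mAb on AHC biosensors for 5 min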
Experimental: as §2, §1

[7] = molecular target: T4, stabilized hPIV1 F protein trimer in pre-fusion conformation (human parainfluenza virus 1); test: ELISA, F protein coated
T4 construct: also called preF-hPIV1; HPIV1 pre-fusion F protein
Experimental: (§3) Briefly, 96-well microtiter plates were coated with 100 μL/well of individual F protein at 2 μg/mL, and then incubated at 4° C. overnight. After washing with 0.01M TBS/0.1% Brij-35, the plates were blocked with 5% non-fat milk for 1 hr at RT. […] After 3 washes with 0.01M TBS/0.1% Brij-35, 100 μL/well of secondary antibody (HRP-anti-human Fc) in a 1:3000 dilution was added to the plates and incubated for 1 hr RT. After 3 washes with 0.01M TBS/0.1% Brij-35, 100 μL/well of TMB-ELISA Substrate Solution was added to the plates. The reaction was stopped with addition of 100 μL/well of 2N H2SO4 after 2 minutes. The plates were then read on a SpectraMax microplate reader with SoftMax Pro software at OD 450 nm (Molecular Devices). The data was analyzed with Graphpad Prism software.

[8] = molecular target: T5, stabilized hMPV F protein trimer in pre-fusion conformation (human metapneumovirus); test: BLI, mAb captured, F protein at 50 nM
T5 construct: also called preF-hMPV; hMPV pre-fusion F protein

[9] = molecular target: T4, stabilized hPIV1 F protein trimer in …; test: SPR (Biacore 8K+), mAb captured on Protein A chip
Text: (§4) To avoid conformation changes of F protein while coupling to SPR sensor chip an orientation-specific binding of antibodies through constant (Fc) region was chosen to determine affinity of the newly discovered antibodies using Biacore 8K+ system (Cytiva) and corresponding InSight Software (Cytiva) for analysis. […] Unbound antibodies were washed off with 1×HBS-P buffer. […] Dissociation time was set to 600 seconds to allow for elongated fitting model. Chip was regenerated with two cycles of 4.5M MgCI2 solution. […] Affinity of antibodies were reported in molar concentrations as ratio of dissociation and association.

hMPV B F WT Control [10] = molecular target: T6, hMPV B F WT Control (hMPV B, UniProt Q6WB98 19-102); test: BLI, 53C stress
Experimental: (§5) All measurements were conducted at 30° C. temperature in 96-well black plates (Corning, Corning, NY) with a final volume of 240 μL per well at a constant agitation rate of 1000 RPM.
(§6) Conformation integrity of hMPV B F protein mutants were evaluated by a thermal stress experiment. Crude cell culture supernatants were normalized based on the results of the titer quantitation and then incubated for 1 hour at room temperature and two higher temperatures. For the testing of hMPV B single mutants, the two temperatures were 53° C. and 56° C. After the incubation, the protein mutants were probed with prefusion specific monoclonal antibody hMPV-2 by OCTET HTX. Anti-Human IgG Fc Capture (AHC) biosensors were first equilibrated in PB before being dipped into more PB for to establish the initial baseline. Biosensors were incubated with hMPV-2 before being equilibrated in PB to establish the experimental baseline. The mAb-bound biosensors were then dipped into the thermal stresses cell culture supernatants for 5 minutes.

hMPV100 [11] = molecular target: T7, hMPV100 (hMPV B, UniProt Q6WB98 19-102); test: BLI, 53C stress
T7 construct: T411C-Q434C
Experimental: as §5, §6

hMPV101 [12] = molecular target: T8, hMPV101 (hMPV B, UniProt Q6WB98 19-102); test: BLI, 53C stress
T8 construct: A140C-S149C
Experimental: as §5, §6

hMPV102 [13] = molecular target: T9, hMPV102 (hMPV B, UniProt Q6WB98 19-102); test: BLI, 53C stress
T9 construct: L141C-A161C
Experimental: as §5, §6

hMPV103 [14] = molecular target: T10, hMPV103 (hMPV B, UniProt Q6WB98 19-102); test: BLI, 53C stress
T10 construct: E146C-T160C
Experimental: as §5, §6

hMPV104 [15] = molecular target: T11, hMPV104 (hMPV B, UniProt Q6WB98 19-102); test: BLI, 53C stress
T11 construct: A459P
Experimental: as §5, §6

hMPV105 [16] = molecular target: T12, hMPV105 (hMPV B, UniProt Q6WB98 19-102); test: BLI, 53C stress
T12 construct: G239A
Experimental: as §5, §6

hMPV106 [17] = molecular target: T13, hMPV106 (hMPV B, UniProt Q6WB98 19-102); test: BLI, 53C stress
T13 construct: T49I
Experimental: as §5, §6

hMPV107 [18] = molecular target: T14, hMPV107 (hMPV B, UniProt Q6WB98 19-102); test: BLI, 53C stress
T14 construct: S149T
Experimental: as §5, §6

hMPV108 [19] = molecular target: T15, hMPV108 (hMPV B, UniProt Q6WB98 19-102); test: BLI, 53C stress
T15 construct: T365I
Experimental: as §5, §6

hMPV B F WT Control [20] = molecular target: T6, hMPV B F WT Control; test: BLI, 56C stress
Experimental: as §5, §6

hMPV100 [21] = molecular target: T7, hMPV100; test: BLI, 56C stress
Experimental: as §5, §6

hMPV101 [22] = molecular target: T8, hMPV101; test: BLI, 56C stress
Experimental: as §5, §6

hMPV102 [23] = molecular target: T9, hMPV102; test: BLI, 56C stress
Experimental: as §5, §6

hMPV103 [24] = molecular target: T10, hMPV103; test: BLI, 56C stress
Experimental: as §5, §6

hMPV104 [25] = molecular target: T11, hMPV104; test: BLI, 56C stress
Experimental: as §5, §6

hMPV105 [26] = molecular target: T12, hMPV105; test: BLI, 56C stress
Experimental: as §5, §6

hMPV106 [27] = molecular target: T13, hMPV106; test: BLI, 56C stress
Experimental: as §5, §6

hMPV107 [28] = molecular target: T14, hMPV107; test: BLI, 56C stress
Experimental: as §5, §6

hMPV108 [29] = molecular target: T15, hMPV108; test: BLI, 56C stress
Experimental: as §5, §6

hMPV128 = molecular target: T16, hMPV128 (hMPV B, UniProt Q6WB98 19-102); test: BLI, 63C stress
T16 construct: T49I, A140C-S149C, G239A, T411C-Q434C, A459P
Experimental: as §6

hMPV132 = molecular target: T17, hMPV132 (hMPV B, UniProt Q6WB98 19-102); test: BLI, 63C stress
T17 construct: L141C-A161C, S149T, G239A, T411C-Q434C, A459P
Experimental: as §6

hMPV134 = molecular target: T18, hMPV134 (hMPV B, UniProt Q6WB98 19-102); test: BLI, 63C stress
T18 construct: T49I, L141C-A161C, S149T, G239A, T365I, T411C-Q434C, A459P
Experimental: as §6

hMPV135 = molecular target: T19, hMPV135 (hMPV B, UniProt Q6WB98 19-102); test: BLI, 63C stress
T19 construct: T49I, S149T, A459P
Experimental: as §6

hMPV137 = molecular target: T20, hMPV137 (hMPV B, UniProt Q6WB98 19-102); test: BLI, 63C stress
T20 construct: T49I, A140C-S149C
Experimental: as §6

[30] = molecular target: T5, stabilized hMPV F protein trimer in …; test: ELISA, F protein coated
Experimental: as §3

[31] = molecular target: T5, stabilized hMPV F protein trimer in …; test: SPR (Biacore 8K+), mAb captured on Protein A chip
Text: as §4

B1: PIV1-8 mAb (antibody, V domains shown)
VH: QVQLVQSGAEVKKPGSSVKVSCEASGGTFSNYVISWVRQAPGQGLEWMGGIIPVFATAKYAQKFQGRVTIIADQSTNTAYLELSSLRSDDTAVYFCASVDSGGTWWDAFAIWGQGTMVTVSS
VL: QAVVTQPRSVSGSPGQAVTISCTGTSSDVGGYNYVSWYQHHPGKAPKLIIYDVTKRPSGVPDRFSGSKSGNTASLTISGLQTEYEADYYCCSYAGSYTLVFGGGTKLTVLG
notes: human IgG1; also called hPIV1-8 mAb; hPIV1-8
Response Shift [1]: 0.769 nm | Response Shift (PIV1069 [2]): 0.857 nm | Response Shift (PIV1070 [3]): 0.876 nm | Response Shift [4]: 0.458 nm | Response Shift (PIV1069 [5]): 0.819 nm | Response Shift (PIV1070 [6]): 0.859 nm | EC50 [7]: 0.103 nM | Binding response BLI [8]: -0.051 nm | Kd [9]: 0.885 nM

B2: hMPV-2 mAb (antibody, V domains shown)
VH: QVQLQQSGAEVKKPGASVKVSCKASGYTFTSYGISWVRQAPGQGLEWMGWISGYNGNTNYAQTFQGTFTMTTDTSTSTAYMELRRLRSGDTAVYYCARDRYYASGSYNGMDVWGQGTTVTVSS
VL: QSALTQPPSASGAPGQRVTVSCSGSSSNVGSSSVYWYQQLPGTAPKLLIYRNNQRPSGVPDRFSGSKSGTSASLAISGLRSEDEADYYCAAWDDSLSGWVFGGGTKLTVLG
notes: human IgG1
Response Shift (hMPV B F WT Control [10]): 0.418 nm | Response Shift (hMPV100 [11]): 0.854 nm | Response Shift (hMPV101 [12]): 0.716 nm | Response Shift (hMPV102 [13]): 0.572 nm | Response Shift (hMPV103 [14]): 0.588 nm | Response Shift (hMPV104 [15]): 0.336 nm | Response Shift (hMPV105 [16]): 0.785 nm | Response Shift (hMPV106 [17]): 0.828 nm | Response Shift (hMPV107 [18]): 0.846 nm | Response Shift (hMPV108 [19]): 0.802 nm | Response Shift (hMPV B F WT Control [20]): 0.005 nm | Response Shift (hMPV100 [21]): 0.779 nm | Response Shift (hMPV101 [22]): 0.649 nm | Response Shift (hMPV102 [23]): 0.007 nm | Response Shift (hMPV103 [24]): 0.041 nm | Response Shift (hMPV104 [25]): -0.11 nm | Response Shift (hMPV105 [26]): 0.064 nm | Response Shift (hMPV106 [27]): 0.397 nm | Response Shift (hMPV107 [28]): 0.519 nm | Response Shift (hMPV108 [29]): 0.04 nm | Response Shift (hMPV128): 0.746 nm | Response Shift (hMPV132): 0.606 nm | Response Shift (hMPV134): 0.733 nm | Response Shift (hMPV135): -0.015 nm | Response Shift (hMPV137): 0.238 nm | EC50 [30]: 0.097 nM | Binding response BLI [8]: 1.21 nm | Kd [31]: 0.685 nM
